The target in assay [1] is DS-Cav1 (respiratory syncytial virus subtype A, strain A2 | not stated) (UniProt P03420). As to the kind of experiment: SEC.
For assay [2], the target named is DS-Cav1-His6 (respiratory syncytial virus subtype A, strain A2 | not stated) (UniProt P03420). Briefly: cross-linking.
The target is the same in assay [3]. Briefly: SEC. A general note: Size exclusion chromatography separates by hydrodynamic size, large species first.
The target of assay [4] is sc9–10 DS-Cav1 (respiratory syncytial virus subtype A, strain A2 | not stated) (UniProt P03420). As to the kind of experiment: SEC.
The target in assay [5] is sc9–10 DS-Cav1-His6 (respiratory syncytial virus subtype A, strain A2 | not stated) (UniProt P03420). As to the kind of experiment: cross-linking.
Assay [6] shares this target. Briefly: SEC.
The next assay concerns the target UFCM1-P2 (human metapneumovirus, …, UniProt Q1A2Z0, E80D | T127C | N153C | A185P | V155P). As to the kind of experiment: ELISA. (ELISA stands for enzyme-linked immunosorbent assay.)
The next assay addresses UFCM1 (human metapneumovirus, …, UniProt Q1A2Z0, E80D | T127C | N153C | A185P). Briefly: ELISA.

A word on the stoichiometry N: it is the number of molecules, sites or subunits per partner or assembly.

In the case of “DS-Cav1 (from UniProt P03420 26-513) (domain or fragment)”, the stoichiometry N in assay [1] amounted to 3.

Regarding “DS-Cav1-His6 (from UniProt P03420 26-513) (domain or fragment)”, the stoichiometry N in assay [2] and in assay [3] was 3 each time.

In the case of “sc9–10 DS-Cav1 (from UniProt P03420 26-513) (domain or fragment)”, the stoichiometry N in assay [4] was found to be 3.

As for “sc9–10 DS-Cav1-His6 (from UniProt P03420 26-513) (domain or fragment)”, the stoichiometry N in assay [5] and in assay [6] was 3 in each case.

B1: MPE8 IgG (antibody, V domains shown)
VH: EVQLVESGGGLVKPGGSLRLSCAASGFTFSSYSMNWVRQAPGKGLEWVSSISASSSYSDYADSAKGRFTISRDNAKTSLFLQMNSLRAEDTAIYFCARARATGYSSITPYFDIWGQGTLVTVSS
VL: QSVVTQTPSVSGAPGQRVTISCTGSSSNIGAGYDVHWYQQLPGTAPKLLIYDNNNRPSGVPDRFSASKSGTSASLAITGLQAEDEADYYCQSYDRNLSGVFGTGTKVTVL
Consider B1, for which the binding result with UFCM1-P2 and with UFCM1 was “binds” throughout.

For the origin of these results see article PMC10942449 (bioRxiv, 2024).
